Patent US20240368264A1 (SHANGHAI NOVAMAB BIOPHARMACEUTICALS, published 2024)
One block for each binder: values may come before it.

How the values were obtained:
TSLP-Fc antigen = assay: BLI (Fortebio): antibody captured on Protein A probe, TSLP-Fc antigen 2-fold from 20 nM, global fit
Procedure: The binding kinetics of 14 blocking TSLP nanobodies were measured by Bio-layer interferometry (BLI). For kinetic measurements, candidate antibodies were diluted to 5 ug/mL in PBST buffer, TSLP-Fc antigen diluted in PBST buffer in 2-fold gradients in six concentration gradients (2-fold gradient dilution from 20 nM), and set the instrument operating conditions: Temperature 30° C., Shake speed 1000 rpm. Antibodies were captured using a probe already encapsulated with Protein A, capture time 60 s; Binding of gradient diluted antigen, binding time 240 s; dissociation time 300 s; 10 mM glycine (pH 1.7) regenerated 2 times for 5 s each. Fortebio Analysis version 9.0 was used to perform the analysis, Global mode was fitted and the binding rate (Kon), dissociation rate (Kdis) and dissociation constant KD were calculated.

TSLP-Biotin protein = TSLP-Biotin protein (UniProt Q969D9 29-159, biotinylated (site not stated)); assay: flow cytometry blocking assay: antibody diluted 2-fold from 20 ug/mL with TSLP-Biotin on HEK293F/TSLPR transient cells, SA-PE, MFI; blocked partner: TSLPR on the cells
Procedure: The above 31 purified antibodies were again subjected to flow cytometry blocking activity assay. […] Centrifuged again and discard supernatant, add 200 uL PBS per well to resuspend cells, flow cytometry was performed to detect PE signal of sample.

human TSLP factor = human TSLP factor (human, UniProt Q969D9 29-159); assay: cell-based or functional assay
[1] = molecular target: Human TSLP antigen protein (human, UniProt Q969D9 29-159); assay: blocking ELISA: human TSLP coated, antibody dilutions with 0.02 ug/mL biotinylated TSLPR, SA-HRP, OD450; blocked partner: biotinylated TSLPR protein
Procedure: The above purified bivalent humanized antibodies were subjected to ELISA to detect blocking activity. […] After washing 5 times with PBST, 100 uL of TMB color-substrate solution was added and colour development at 37° C. for 10 min. The reaction was terminated by adding 2M H₂SO₄ 50 uL/well, and the absorption value was measured at 450 nm on an microplate reader.

B2: Nb5-31 (VHH)
VHH: QVQLQESGGGSVQAGGSLRLSCTASGFTSGGSDMGWYRQAPGNECDLVSYISSDGSTYYADSVKGRFTISQDNAKNTVYLQMNSLKPEDTAVYYCAATDYGLGPPPSSTGQCYGMDYWGKGTQVTVSS
notes: Camel nanobody before humanization
- Kd (TSLP-Fc antigen): 0.115 nM
- koff (TSLP-Fc antigen): 0.000231 s⁻¹
- kon (TSLP-Fc antigen): 2.02e+06 M⁻¹ s⁻¹

B4: Bi-HuNb5-31 (VHH)
chain: EVQLLESGGGLVQPGGSLRLSCTASGFTSGGSDMGWYRQAPGNECDLVSYISSDGSTYYADSVKGRFTISQDNAKNTVYLQMNSLKPEDTAVYYCAATDYGLGPPPSSTGQCYGMDYWGKGTLVTVSSGGGGSGGGGSGGGGSGGGGSEVQLLESGGGLVQPGGSLRLSCTASGFTSGGSDMGWYRQAPGNECDLVSYISSDGSTYYADSVKGRFTISQDNAKNTVYLQMNSLKPEDTAVYYCAATDYGLGPPPSSTGQCYGMDYWGKGTLVTVSS
notes: also called humanized bivalent antibody; bivalent single domain antibody
- IC50 of inhibition of hTSLP-induced pSTAT5 (PE MFI, flow cytometry) in BaF3/TSLPR-IL7R cells (human TSLP factor): 0.0797 ug/ml
- IC50 [1]: 0.0759 µg/mL

B5: Bi-HuNb10-63 (VHH)
chain: EVQLLESGGGLVQPGGSLRLSCTASGFTLDDSDMGWYRQAPGDECELVSTISSLGGTYYADSVKGRFTISHDNAKNTVYLQMNSLKPHDTAVYYCAPGTDRYSDCPNEYSVWGQGTLVTVSSGGGGSGGGGSGGGGSGGGGSEVQLLESGGGLVQPGGSLRLSCTASGFTLDDSDMGWYRQAPGDECELVSTISSLGGTYYADSVKGRFTISHDNAKNTVYLQMNSLKPHDTAVYYCAPGTDRYSDCPNEYSVWGQGTLVTVSS
notes: as for B4
- IC50 of inhibition of hTSLP-induced pSTAT5 (PE MFI, flow cytometry) in BaF3/TSLPR-IL7R cells (human TSLP factor): 0.472 ug/ml
- IC50 [1]: 0.0824 µg/mL

B6: Bi-HuNb7-54 (VHH)
chain: EVQLLESGGGLVQPGETLRLSCTASGFTFDDSDMGWYRQAPGNECELVSIISSDGMTYYADSVKGRFTISQDNAKNTVYLQMNSLKPEDTAVYYCAATKYSSDYDVAEDWRRGVCGDMDYWGKGTLVTVSSGGGGSGGGGSGGGGSGGGGSEVQLLESGGGLVQPGETLRLSCTASGFTFDDSDMGWYRQAPGNECELVSIISSDGMTYYADSVKGRFTISQDNAKNTVYLQMNSLKPEDTAVYYCAATKYSSDYDVAEDWRRGVCGDMDYWGKGTLVTVSS
notes: as for B4
- IC50 of inhibition of hTSLP-induced pSTAT5 (PE MFI, flow cytometry) in BaF3/TSLPR-IL7R cells (human TSLP factor): 0.0198 ug/ml
- IC50 [1]: 0.141 µg/mL

Results, then the binder that gave them:

- Kd (TSLP-Fc antigen): 0.0945 nM
- koff (TSLP-Fc antigen): 0.000263 s⁻¹
- kon (TSLP-Fc antigen): 2.78e+06 M⁻¹ s⁻¹
B1: Nb10-63 (VHH)
VHH: QVQLQESGGGSVQAGGSLRLSCTASGFTLDDSDMGWYRQAPGDECELVSTISSLGGTYYADSVKGRFTISHDNAKNTVYLQMNSLKPHDTAVYYCAPGTDRYSDCPNEYSVWGQGTQVTVSS
notes: as for B2

- IC50 (read off the curve) (TSLP-Biotin protein): ~0.2 µg/mL
- Kd (TSLP-Fc antigen): 0.226 nM
- koff (TSLP-Fc antigen): 0.000588 s⁻¹
- kon (TSLP-Fc antigen): 2.61e+06 M⁻¹ s⁻¹
B3: Nb7-54 (VHH)
VHH: QVQLQESGGGSVQAGETLRLSCTASGFTFDDSDMGWYRQAPGNECELVSIISSDGMTYYADSVKGRFTISQDNAKNTVYLQMNSLKPEDTAVYYCAATKYSSDYDVAEDWRRGVCGDMDYWGKGTQVTVSS
notes: as for B2
